Assay: yeast display, Sf9 membrane polyspecificity reagent, FACS + sequencing; frameworks hold sequencing errors
How it was run: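 Galactose-induced (36–48 hours) yeast carrying a synthetic nanobody display library were exposed to 10% biotinylated, detergent-solubilized Sf9 membrane reagent at 4 °C for 1 hour. FACS followed streptavidin microbead enrichment, using low and high (top ~1%) gates for expression (anti-HA) and reagent binding (streptavidin). Colony PCR, MiSeq 2 × 250 sequencing and CDR-length filtering followed. Labels for polyreactivity reflect the gate of origin.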

Question: For “QVQLVVSGGGLVQAGGSLRLSCAASGSILDSNAMGWYRQAPGKERELVAAITSGGSTYYADSVKGRFTISRDNAKNTVYLQMNSLKPEDTAVYYCNANGVQYFLYGYWGQGTQVTVSS”, which “polyreactivity (PSR sort gate)” value is on record?
Answer: low polyreactivity

Question: With “QVQLVESGGGLVQAGGSLRLSCAASGSIFYWNVMGWYRQAPGKERELVAGISTSVGNTYYADSVKGRFTISRDNAKNTVYLQMNSLKPEDTAVYYCNVAGKQKPYYVTTRLDYWGQGTQVTVSS” as the sequence, how does the “polyreactivity (PSR sort gate)” value read?
Answer: high polyreactivity

Question: Which “polyreactivity (PSR sort gate)” value does the source give for “QVQLVESGGGLVQAGGSLRLSCAASGFTSWQYAMGWSIQAPGKERELVAAISVSGASTYYADSVKGRFTISRDNAKNTVYLQMNSLKPEDTAVYYCAAAYVRYPTTRYYYWGQGTQVTVSS” here?
Answer: high polyreactivity

Question: Which “polyreactivity (PSR sort gate)” value does the source give for “QVQLVESGGGLVQAGGSLRLICAASGFIITGNAMGWYRQAPGKERELVAAITSGGNTYYADSVKGRFTISRDNAKNTVYLQMISMKPEDTAVYYCAKYGPHWRILMEYWGQGTQVTVSS” here?
Answer: low polyreactivity

Question: Which “polyreactivity (PSR sort gate)” value does the source give for “QVQLVESGGGLVQAGGSLRLSCAASGSIFDGYALGWYRQAPGKEREFVAAIDTGDTRTYYADSVKGRFTISRDNAKNTVYLQMNSLKPEDTAVYYCNADDWAYGMDYWGQGTQVTVSS” here?
Answer: low polyreactivity

Question: Which “polyreactivity (PSR sort gate)” value does the source give for “QVQLVESGGGLVQAGGSLRLSCAASGSIFRIYAMGWYRQAPGKERELVAAISWSGGSTYYADSVKGRFTISRDNANNTVYLQMNSRKPEDTAVYYCAARPRYKYSAYEYWGQGTQVTVSS” here?
Answer: high polyreactivity

Question: With “QVQLGESGGRLVQAGGSIRLTCAASGRTFVTYAMAWSRQAPGNEWELVAGIRPGGSTYYADSVKGRFTISRDNAKNTVYLQMNSLKPEDTAVYYCAASRTSWQGYNYWGQGTQVTVSS” as the sequence, how does the “polyreactivity (PSR sort gate)” value read?
Answer: high polyreactivity

Question: Which “polyreactivity (PSR sort gate)” value does the source give for “QVQLVESGGGLVQAGGSLRLSCAASGRTYVVKAMGWYRQAPGKERELVAAIIRGNTYYADSVKGRFTISRDNAKNTVYLQMNSLKPEDTAVYYCAARYSPYKYYYWGQGTQVTVSS” here?
Answer: high polyreactivity

Question: Which “polyreactivity (PSR sort gate)” value does the source give for “QVQLVESGGGLVQAGGSLRLSCAASGRTSVRYAMGWYRQAPGKERELVAAISWSGGSTYYADSVKGRFTISRDNAKNTVYLQMNSLKPEDTAVYYCNAQHARGYYYWGQGTQVTVSS” here?
Answer: low polyreactivity

Question: For “QVQLVESGGGLVQAGGSLRLSCAASGRTFTRYAMGWYRQAPGKEREFVAAITTRGGSTYYADSVKGRFTISRDNAKNTVYLQMNSLKPEDTAVYYCAADYYYVQVLYDLGLDYWGQGTQVTVSS”, which “polyreactivity (PSR sort gate)” value is on record?
Answer: high polyreactivity

Question: Which “polyreactivity (PSR sort gate)” value does the source give for “QVQLVESGGGLVQAGGSLRLSCAASGSTFRLNARGWYRQAPGKERELVASIRWSVGITYYADSVKGRFTISRDNAKNTVYLQMNSLKPEDTAVYYCATRDTTWRYYYWGQGTQVTVSS” here?
Answer: high polyreactivity

Question: With “QVQLVESGGGLVQAGGSLRLSCAASGRTFGFYAMGWYRQAPGKERELVATISSSGGSTYYADSVKGRFTISRDNAKNTVYLQMNSLKPEDTAVYYCAADYLDSTYGYVYGWDDYWGQGTQVTVSS” as the sequence, how does the “polyreactivity (PSR sort gate)” value read?
Answer: low polyreactivity

Question: With “QVQLVESGGGLVQARGSLRLICAASGSTFGVHAMGWSRQAPGKERELVAAITWRGGSTYYADSLKGRFTISRDTAKNTVYLQMNSLKPEDTAVYYCAADPRYYSYEYWGEGTQVTVSS” as the sequence, how does the “polyreactivity (PSR sort gate)” value read?
Answer: high polyreactivity

Question: With “QVQLVESGGGLVQAGGRLLLSCAASGSTFTRNAMGWYRPAPGKERELVAAISSSGSRTYYADSVKGRFTISRDNAKNTVYLQMNSLIPADTAVYYCNKTKHSYLYTDDDYWGQGTQVTVSS” as the sequence, how does the “polyreactivity (PSR sort gate)” value read?
Answer: high polyreactivity

Question: Which “polyreactivity (PSR sort gate)” value does the source give for “QVQLVESGGGLVQAGGSLRLSCAASGFILSNYAMGWYRQAPGKERELVAAIRWSGGSTYYADSVKGRFTISRDYAKNTVYLQMNSLKPEDTAVYYCNKVRPFSWYGLDYWGQGTQVTVSS” here?
Answer: high polyreactivity

Question: Which “polyreactivity (PSR sort gate)” value does the source give for “QDQLLESGGGLVQAGGSLLLSCAASGSTFFDYAMGWYRQAPGKERELVAVISDGGTTTYADSVKGRFTISRDNAKNTVYLQMNSLKPEDTAVYYCAAENQDGLLVILGGYGYWGQGTQVTVSS” here?
Answer: low polyreactivity

Question: For “QVQLVESGGGLVQAGGSLRLSCAASGSIFPYNAMGWYRQAPGKERELVATISSGGSTNYADSVKGRFTISRDNAKNTVYLQMKSLKPADTAVYYCAADVIVFFSAPNYWGDIEYGYWGQGTQVTVSS”, which “polyreactivity (PSR sort gate)” value is on record?
Answer: low polyreactivity

Question: Which “polyreactivity (PSR sort gate)” value does the source give for “QVHLVESGGGLVQAGGSLRLSCAASGNIIYWNGMGWYRKAPGKEREFVADITASGGSTYYADSVKGRFTISRDNAKNTVYLQMNSLIPEDTAVYYCAAQGVDSYYENDYWGQGTQVTVSS” here?
Answer: high polyreactivity

Question: Which “polyreactivity (PSR sort gate)” value does the source give for “QVQLQESGGGLVQACSSLRLSCAASGTIFYYIMGWYRQAPGKERELVATIDLGGGTNYADSVKGRFTISRDDAKNTVYLQMSSLKPEDTAEYYCAVYLYRLTFFYYWGQGNQVTVSS” here?
Answer: high polyreactivity

Question: With “QEQLQESGSGLVQAGGSLRLSCAASGNIFQDWVMGWYRKAPGQERELVAAISPGAITYYADSVKGRFTISRDNAKNSVYLQTKSLKPEDTAVYYCGAYYIVEYLHGYWGQGTRVTVSS” as the sequence, how does the “polyreactivity (PSR sort gate)” value read?
Answer: low polyreactivity

Question: For “QVQLVESGGGLVQAGGSLRLSCAASGSTLRRYAMGWYRQAPGKEMELVAAISGSGDSTYYADSVKGRFTISRDNAKNTVYLQMNSLKPEDTAVYYCNAVYAFNGYDYWGQGTQVTVSS”, which “polyreactivity (PSR sort gate)” value is on record?
Answer: low polyreactivity

Question: With “QVQLVESGGGLVQAGGSLRLSCDASGITIRLYGMGWYRQAPGTERELVATITRDGRTYYADSVKGRFTISRDNAKNTVYLQMNSLKPEDTGVYYCARPARYSYGDGYWGQGTEVTVSS” as the sequence, how does the “polyreactivity (PSR sort gate)” value read?
Answer: low polyreactivity

Question: With “QVQLVESGGGLVQAGGSLRLRCAASGIIFSPYDMGWSIQAPGKVRELVAAITTGDSTNYADSVKGRFTMSRDNAKTTVYFPMNSLKPEDTAVDYCNATDTYVFFLYLEFDYWGQGTQVTVSS” as the sequence, how does the “polyreactivity (PSR sort gate)” value read?
Answer: low polyreactivity

Question: Which “polyreactivity (PSR sort gate)” value does the source give for “QVQLGESGGGLVQAGGSLRLSCAASGRIFSTYVMGLYRQAPGKERELVAAITRGGSTNYADSVKGRFTISRDNAKNTVYLQMNSLKPEDTADYYCNAQRRGTYYWGQGTQVTVSS” here?
Answer: high polyreactivity

Question: Which “polyreactivity (PSR sort gate)” value does the source give for “QVQLVESGGGLVQAGGSLRLSCAASGSTFGVNAMGWYRQAPGKERELVAAISSSGSSTYADSVKGRFTISRDNAKNTVYLQMNSLKPEDTAVYYCAAQSPAYYTKSYWGQGTQVTVSS” here?
Answer: low polyreactivity

Question: With “QVQLVESGGGLVQAGGSLRLSCAASGLTFEDNDMGWYRQAPGKERELVAAISSAGSTSYADSVKGRFTISRDNAKNTVYLQMNSLKPEDTAVYYCAKRYYLYHYDSWGQGTQVTVSS” as the sequence, how does the “polyreactivity (PSR sort gate)” value read?
Answer: low polyreactivity

Question: For “QVQVVESGGGLVQAGGSLRLSCAASGSIFVGYAMGWYRQAPGKEREFVAGITARGGSTYYADSVKGRFTISCDNAKNTVYIPMNSQKPEDSAVYYCAADDGSENDYWGQGTQVTVSS”, which “polyreactivity (PSR sort gate)” value is on record?
Answer: low polyreactivity

Question: Which “polyreactivity (PSR sort gate)” value does the source give for “QVQLVESGGGIVQAGGSLRLSCAASGFIFQRYVMGWYRQEPGKERQLVAAISSGGSTNYADSVKGRFTISRDNAKNTVYLQMNSLKAEDTAVYYFAADGFYYRNWGRFRYYYWGLGTQVTVSS” here?
Answer: low polyreactivity

Question: With “QVQLVESGGGLVQAGGSLRLSCDASGRTLDVNARGWYRQAPGKERELVAAISYSGGITYYADSVKGRFTISRDNAKNTVYLQMNRLKPEDTAVYYCAVVGGYPSYTVDYWGKGTQVTVSS” as the sequence, how does the “polyreactivity (PSR sort gate)” value read?
Answer: low polyreactivity

Question: For “QVQLVESGGGLVQAGGSLRLSCAASGITSGNNAMGWYRQAPGKERELVAAISWTGGSTYYADSVKGRFTISRDNAKNTVYLEMNSLKPEDTAVYYCAAGGWDPFTEQHYEYWGQGTQVTVSS”, which “polyreactivity (PSR sort gate)” value is on record?
Answer: low polyreactivity

Question: Which “polyreactivity (PSR sort gate)” value does the source give for “QVQLVESGGGLVQAGGTLRLSCAASVFTFYYNTMGWYRQAPGKERELVAGIDISGSSTYADSVKGRFTISRDNAKNTVYLQMNSLKPEDTAVYYCAAVYFWGMDYWGQGTQVTVSS” here?
Answer: low polyreactivity

Question: For “QVQLVESGGGLVQAGGSLRLSCAASGRIFRYYAMGWYRQAPPKERELVAAIRWSGGRTYYADSVKGRFTISRDNAKNTVYLQMNSLKPEDTAVYYCAADSPYKMDYWGQGTQVTVSS”, which “polyreactivity (PSR sort gate)” value is on record?
Answer: high polyreactivity

Source: the nanobody polyreactivity screen of Harvey et al. (2022)
